This is an account of results in PMC4988983.

As a reminder, the stoichiometry N is the number of molecules, sites or subunits per partner or assembly.

Assay [1] concerns the target NADPH-thioredoxin reductase C from Anabaena sp. PCC 7120 (Anabaena sp. PCC 7120 (endogenous in Anabaena cells)). Description: SEC; soluble extracts (200 µg total protein) of untreated Anabaena cells (0 h) on Superdex 200 HR 10/30, 50 mM KH2PO4 pH 7.1, 150 mM NaCl, 0.5 ml/min; fractions read by Western blot. For orientation: Size exclusion chromatography separates by hydrodynamic size, large species first.

Assay [2] concerns the target 2-Cys peroxiredoxin from Anabaena sp. PCC 7120 (Anabaena sp. PCC 7120 (endogenous in Anabaena cells)). As to the kind of experiment: non-reducing SDS-PAGE with Western blot; soluble extracts of Anabaena WT and ΔntrC cells treated with H2O2, methyl viologen or high light; dimer and monomer bands of 2-Cys Prx.
For assay [3] the target is unchanged. As to the kind of experiment: SEC; soluble extracts (200 µg total protein) of untreated Anabaena cells (0 h) on Superdex 200 HR 10/30, 50 mM KH2PO4 pH 7.1, 150 mM NaCl, 0.5 ml/min; fractions read by Western blot.

With “NADPH-thioredoxin reductase C from Anabaena sp. PCC 7120 (enzyme)”, in assay [1], the stoichiometry N turned out to be 2. With “2-Cys peroxiredoxin from Anabaena sp. PCC 7120 (enzyme)”, the stoichiometry N in assay [2] and in assay [3] was 2 throughout.
